Experimental data as given in publication PMC5432818, “Biochemical characterization of a functional recombinant aryl-alcohol dehydrogenase from Taiwanofungus camphorata” (Botanical Studies, 2014).

System: COc1ccc(C=O)cc1OC
Assay: purified protein
Format: biochemical, Taiwanofungus camphoratus
Conditions: reduction, 0.2 mM NADPH fixed, 25 mM bis-tris-propane/HCl pH 6.0, 25 °C, veratraldehyde 0.1-0.4 mM

Substance “TcAAD (also printed TcADD) (Taiwanofungus camphoratus)” has a Km of 250 µM.
